Holding throughout (experiment): cell-based or functional assay
Assay [1] concerns the target wild-type TGFβRII on untransduced (UT) cord blood-derived NK cells (human) (UniProt P37173).
Assay [2] has as its target NKCT receptor (truncated TGFβ dominant negative receptor fused to a SynNotch receptor coupled to RELA/p65) (human) (UniProt P37173).
Assay [3] addresses NKA receptor (truncated TGFβ dominant negative receptor fused to DAP12) (human).
The target of assay [4] is RBDNR receptor (truncated TGFβ dominant negative receptor) (human) (UniProt P37173).

Chain of NKA receptor (truncated TGFβ dominant negative receptor fused to DAP12) (human) (chain, as listed by the source limits assumed, form in doubt): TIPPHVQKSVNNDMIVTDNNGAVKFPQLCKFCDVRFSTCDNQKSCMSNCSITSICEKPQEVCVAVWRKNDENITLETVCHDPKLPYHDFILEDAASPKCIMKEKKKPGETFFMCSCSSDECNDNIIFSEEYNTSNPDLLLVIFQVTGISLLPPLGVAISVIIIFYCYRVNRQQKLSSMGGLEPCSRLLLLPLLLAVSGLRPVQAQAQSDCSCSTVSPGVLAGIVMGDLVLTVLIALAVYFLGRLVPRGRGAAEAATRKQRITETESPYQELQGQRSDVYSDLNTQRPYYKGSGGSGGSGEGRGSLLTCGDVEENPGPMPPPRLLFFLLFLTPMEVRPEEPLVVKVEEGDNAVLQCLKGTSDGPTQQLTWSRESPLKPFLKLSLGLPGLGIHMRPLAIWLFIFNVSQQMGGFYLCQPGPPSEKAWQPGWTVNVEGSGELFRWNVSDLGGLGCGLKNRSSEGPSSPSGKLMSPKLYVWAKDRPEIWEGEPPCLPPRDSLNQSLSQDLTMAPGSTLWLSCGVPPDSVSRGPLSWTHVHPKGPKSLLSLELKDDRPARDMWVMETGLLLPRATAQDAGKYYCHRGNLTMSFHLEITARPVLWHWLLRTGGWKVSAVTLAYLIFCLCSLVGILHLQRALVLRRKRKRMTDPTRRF

The substance TGFβ (ligand) yielded a phosphorylated Smad2/3 (Ser465/467) by flow cytometry in untransduced NK cells, 1 hour after 10 ng/mL TGFβ in assay [1] of 73.9%. In addition, the protection from TGFβ-impaired cytolytic activity in vitro (TGFβ concentration at which protection is lost) in assay [2], in assay [3] and in assay [4] was > 50 ng/mL each time.

Values taken from patent US20230210897A1.
